From PMC8672344

Target: Y75H holo-HasAp (heme-loaded hemophore HasAp, Y75H variant) (Pseudomonas aeruginosa) (UniProt G3XD33)
Test: SPR

In the case of “HasR outer membrane receptor in styrene-maleic acid lipid nanodisc (HasR-SMALP)”, the Kd is reported as 394 nM.
